Experimental data reported in paper PMC10341550, “Beta-Secretase 1 Recruits Amyloid-Beta Precursor Protein to ROCK2 Kinase, Resulting in Erroneous Phosphorylation and Beta-Amyloid Plaque Formation” (International Journal of Molecular Sciences, 2023).

Assays:
[1] = molecular target: Full-length ROCK2 protein (human ROCK2 1–1388) (human) (UniProt O75116); test: SPR; Biacore X, CM5; full-length ROCK2 amine-coupled (1700 RU); analyte 7 µM with 100 µM MgATP (15-fold molar excess); HBS-EP pH 7.4, 10 µL/min
[2] = molecular target: BACE1 cytoplasmic domain peptide (residues 479–501), N-terminally labelled with 5-FAM; test: fluorescence polarisation; direct titration: 50 nM fluorescein-labelled BACE1 peptide, dilution series of ROCK2; 20 mM Tris pH 8.0, 100 mM NaCl, 0.05% Brij35P, 2 mM DTT; 384-well plates

Full-length ROCK2 protein (human ROCK2 1–1388) (human), sequence (O75116 whole entry, the tested form may be a part): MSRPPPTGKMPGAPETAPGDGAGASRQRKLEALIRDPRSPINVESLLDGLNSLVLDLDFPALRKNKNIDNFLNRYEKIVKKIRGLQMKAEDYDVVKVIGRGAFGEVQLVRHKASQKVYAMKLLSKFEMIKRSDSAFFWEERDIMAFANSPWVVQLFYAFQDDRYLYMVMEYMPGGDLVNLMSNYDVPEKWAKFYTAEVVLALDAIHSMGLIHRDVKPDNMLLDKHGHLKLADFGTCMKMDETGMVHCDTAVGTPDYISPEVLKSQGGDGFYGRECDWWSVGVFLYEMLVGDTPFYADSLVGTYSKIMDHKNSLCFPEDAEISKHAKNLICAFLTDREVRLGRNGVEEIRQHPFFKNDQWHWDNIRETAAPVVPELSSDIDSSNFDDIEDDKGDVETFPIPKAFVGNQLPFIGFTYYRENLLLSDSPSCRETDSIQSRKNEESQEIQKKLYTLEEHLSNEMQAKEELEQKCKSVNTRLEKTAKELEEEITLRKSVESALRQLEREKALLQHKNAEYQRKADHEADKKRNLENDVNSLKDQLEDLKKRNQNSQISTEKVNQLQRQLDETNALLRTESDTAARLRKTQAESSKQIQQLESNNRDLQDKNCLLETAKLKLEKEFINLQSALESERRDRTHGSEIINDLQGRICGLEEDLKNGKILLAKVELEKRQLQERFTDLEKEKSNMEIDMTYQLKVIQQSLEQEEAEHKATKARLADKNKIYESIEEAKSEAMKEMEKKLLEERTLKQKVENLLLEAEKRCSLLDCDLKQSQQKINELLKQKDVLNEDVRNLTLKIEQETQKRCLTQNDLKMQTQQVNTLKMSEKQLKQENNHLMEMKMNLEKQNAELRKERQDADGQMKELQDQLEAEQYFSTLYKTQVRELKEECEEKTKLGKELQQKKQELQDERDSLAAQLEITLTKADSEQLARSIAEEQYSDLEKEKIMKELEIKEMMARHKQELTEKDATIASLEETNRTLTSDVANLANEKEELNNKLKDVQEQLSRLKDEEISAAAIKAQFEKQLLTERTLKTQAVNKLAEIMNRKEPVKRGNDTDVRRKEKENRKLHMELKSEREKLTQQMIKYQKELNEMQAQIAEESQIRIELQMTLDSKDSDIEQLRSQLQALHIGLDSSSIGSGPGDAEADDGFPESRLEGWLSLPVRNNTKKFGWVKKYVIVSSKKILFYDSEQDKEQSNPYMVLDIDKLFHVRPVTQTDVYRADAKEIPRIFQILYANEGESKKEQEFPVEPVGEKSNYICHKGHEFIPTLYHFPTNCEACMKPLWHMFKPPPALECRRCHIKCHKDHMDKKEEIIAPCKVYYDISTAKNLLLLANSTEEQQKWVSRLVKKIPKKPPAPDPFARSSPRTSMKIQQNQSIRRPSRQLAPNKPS
ROCK2 kinase domain (27–417) construct, sequence (O75116 27-417): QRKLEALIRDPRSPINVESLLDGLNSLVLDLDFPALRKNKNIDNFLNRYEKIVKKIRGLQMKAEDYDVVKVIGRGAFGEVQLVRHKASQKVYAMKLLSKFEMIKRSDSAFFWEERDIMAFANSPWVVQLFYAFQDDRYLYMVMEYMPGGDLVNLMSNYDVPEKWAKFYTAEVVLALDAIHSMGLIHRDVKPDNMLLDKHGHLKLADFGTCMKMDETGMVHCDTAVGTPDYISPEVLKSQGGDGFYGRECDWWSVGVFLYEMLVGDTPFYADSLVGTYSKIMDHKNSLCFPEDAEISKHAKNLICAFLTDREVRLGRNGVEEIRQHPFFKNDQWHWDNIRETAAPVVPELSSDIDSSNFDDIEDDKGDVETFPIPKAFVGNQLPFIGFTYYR
Full-length ROCK2 protein (human ROCK2 1–1388), sequence (O75116 whole entry): as the sequence (O75116 whole entry, the tested form may be a part) above

| percent of the theoretical signal [1] | response units [1] | Kd [2] | Substance |
| --- | --- | --- | --- |
| 50% | 11 RU |  | BACE1 cytoplasmic domain peptide (residues 479–501), free form |
|  |  | 18 µM | Full-length ROCK2 protein (human ROCK2 1–1388) (from UniProt O75116 1-1388) (enzyme) |
|  |  | 18 µM | ROCK2 kinase domain (27–417) construct (from UniProt O75116 27-417) (domain or fragment) |
